Here are results for 23 sequences from the Immune Epitope Database (IEDB).

Some targets named below: HLA-A*02:01; HLA-A*02:02; HLA-A*02:03; HLA-A*02:06; HLA-A*68:02.
Common to all, as to test: IEDB peptide-MHC binding, purified MHC/competitive/radioactivity; ≥ and ≤ were set here for values at or beyond the usual limits of such assays
Setting [1] is: source organism: Vaccinia virus WR.
Where [2] appears, read: source organism: Mammarenavirus lassaense.
[3] abbreviates: source organism: Mammarenavirus guanaritoense.
The mark [4] stands for this setting: source organism: Influenza A virus.
[5] abbreviates: source organism: Mammarenavirus whitewaterense.
The mark [6] stands for this setting: source organism: Hepacivirus hominis.

For NIVTFINDYA, the IC50 with HLA-A*02:01 (setting [1]) was found to be 827 nM; with HLA-A*02:02 (setting [1]), 62 nM; in the test with HLA-A*02:03 (setting [1]), 245 nM; in the test with HLA-A*02:06 (setting [1]), 351 nM; with HLA-A*68:02 (setting [1]), 82 nM.
Turning to NTCKPTILAT, the IC50 was 4410 nM with HLA-A*02:01 (setting [1]); 460 nM in the test with HLA-A*02:02 (setting [1]); 248 nM in the test with HLA-A*02:03 (setting [1]); 3920 nM with HLA-A*02:06 (setting [1]); 1640 nM with HLA-A*68:02 (setting [1]).
Turning to IITILQDIV, the IC50 with HLA-A*02:01 (setting [1]) is 109 nM; in the test with HLA-A*02:02 (setting [1]), 827 nM; with HLA-A*02:03 (setting [1]), 666 nM; with HLA-A*02:06 (setting [1]), 658 nM; in the test with HLA-A*68:02 (setting [1]) it was 1070 nM.
With FVLALYSPPL, the IC50 was determined as 979 nM in the test with HLA-A*02:01 (setting [1]); 2.2 nM with HLA-A*02:02 (setting [1]); 38 nM with HLA-A*02:03 (setting [1]); 212 nM with HLA-A*02:06 (setting [1]); 263 nM in the test with HLA-A*68:02 (setting [1]).
On the same counts, the results for AIFNNRNLAA are 1330 nM, 450 nM, 103 nM, 774 nM and 2860 nM.
On to LNCLSLLLSV, for which the IC50 with HLA-A*02:01 (setting [2]) came out at 191 nM; in the test with HLA-A*02:02 (setting [2]), 124 nM; with HLA-A*02:03 (setting [2]), 230 nM; with HLA-A*02:06 (setting [2]), 251 nM; with HLA-A*68:02 (setting [2]) it was 4070 nM.
LISFFGLFDI: the half-maximal inhibitory concentration (IC50) stood at 175 nM with HLA-A*02:01 (setting [1]); 76 nM with HLA-A*02:02 (setting [1]); 108 nM in the test with HLA-A*02:03 (setting [1]); 171 nM with HLA-A*02:06 (setting [1]); 82 nM in the test with HLA-A*68:02 (setting [1]).
As to VMYAFTTPLI, the IC50 in the test with HLA-A*02:01 (setting [1]) was found to be 3.1 nM; with HLA-A*02:02 (setting [1]), 0.72 nM; in the test with HLA-A*02:03 (setting [1]), 4.8 nM; in the test with HLA-A*02:06 (setting [1]) it was 12 nM; with HLA-A*68:02 (setting [1]), 132 nM.
In the same order, the values of YLLFNHFSV are 0.27 nM, 1.2 nM, 1.6 nM, 0.73 nM and 39 nM.
With TLVDLCFWS, the IC50 in the test with HLA-A*02:01 (setting [3]) came out at 61 nM; with HLA-A*02:02 (setting [3]), 58 nM; with HLA-A*02:03 (setting [3]), 524 nM; with HLA-A*02:06 (setting [3]), 134 nM; with HLA-A*68:02 (setting [3]), 4880 nM.
On to FNMLSTVLGV, for which the IC50 was 16 nM with HLA-A*02:02 (setting [4]), 11 nM with HLA-A*02:03 (setting [4]), 31 nM in the test with HLA-A*02:06 (setting [4]) and 860 nM with HLA-A*68:02 (setting [4]).
As to FTSDYPFYV, the IC50 is 1.5 nM with HLA-A*02:01 (setting [1]); 2.1 nM with HLA-A*02:02 (setting [1]); 3.9 nM with HLA-A*02:03 (setting [1]); 3.6 nM with HLA-A*02:06 (setting [1]); 1.1 nM with HLA-A*68:02 (setting [1]).
On to AAIDRQVSV, for which the IC50 in the test with HLA-A*02:01 (setting [1]) was 1470 nM; with HLA-A*02:02 (setting [1]), 933 nM; with HLA-A*02:03 (setting [1]) it was 19 nM; with HLA-A*02:06 (setting [1]), 15 nM; with HLA-A*68:02 (setting [1]), 1440 nM.
For YVGDTSMMVI, the IC50 was found to be 803 nM with HLA-A*02:01 (setting [1]); 408 nM with HLA-A*02:02 (setting [1]); 220 nM with HLA-A*02:03 (setting [1]); 324 nM with HLA-A*02:06 (setting [1]); 72 nM with HLA-A*68:02 (setting [1]).
As to TLPELNLSL, the IC50 with HLA-A*02:01 (setting [1]) came to 62 nM; with HLA-A*02:02 (setting [1]), 135 nM; with HLA-A*02:03 (setting [1]), 23 nM; in the test with HLA-A*02:06 (setting [1]), 802 nM; in the test with HLA-A*68:02 (setting [1]), 309 nM.
Take LMTLDDLAI: the IC50 with HLA-A*02:01 (setting [1]) is 74 nM; in the test with HLA-A*02:02 (setting [1]), 52 nM; with HLA-A*02:03 (setting [1]) it was 76 nM; with HLA-A*02:06 (setting [1]) it was 288 nM; in the test with HLA-A*68:02 (setting [1]), 4410 nM.
Consider VTLFIDRGSI, for which the IC50 with HLA-A*02:01 (setting [1]) was 1500 nM; with HLA-A*02:02 (setting [1]), 3830 nM; with HLA-A*02:03 (setting [1]) it was 2250 nM; with HLA-A*02:06 (setting [1]), 3010 nM; in the test with HLA-A*68:02 (setting [1]), 14 nM.
In the case of STISWMMKL, the IC50 in the test with HLA-A*02:01 (setting [1]) came to 55 nM; with HLA-A*02:02 (setting [1]) it was 92 nM; with HLA-A*02:03 (setting [1]), 23 nM; with HLA-A*02:06 (setting [1]) it was 12 nM; in the test with HLA-A*68:02 (setting [1]), 0.23 nM.
On to TVIKTLLEV, for which the IC50 came out at 276 nM with HLA-A*02:01 (setting [5]); 2020 nM in the test with HLA-A*02:02 (setting [5]); 53 nM in the test with HLA-A*02:03 (setting [5]); 17 nM with HLA-A*02:06 (setting [5]); 2.8 nM with HLA-A*68:02 (setting [5]).
With MQKFTILEYL, the IC50 was 3730 nM with HLA-A*02:01 (setting [1]); 164 nM with HLA-A*02:02 (setting [1]); 279 nM with HLA-A*02:03 (setting [1]); 909 nM with HLA-A*02:06 (setting [1]); 3730 nM with HLA-A*68:02 (setting [1]).
For LLAPITAYA, the IC50 came out at 2.9 nM with HLA-A*02:01 (setting [6]); 0.27 nM with HLA-A*02:02 (setting [6]); 0.61 nM with HLA-A*02:03 (setting [6]); 5.3 nM in the test with HLA-A*02:06 (setting [6]); 1.5 nM with HLA-A*68:02 (setting [6]).
For the sequence SLVITYCLV, the IC50 was 174 nM in the test with HLA-A*02:01 (setting [1]); 1690 nM with HLA-A*02:02 (setting [1]); 201 nM with HLA-A*02:03 (setting [1]); 270 nM with HLA-A*02:06 (setting [1]); 1400 nM with HLA-A*68:02 (setting [1]).
In the same order, the values of YIILFILFFA are 234 nM, 263 nM, 674 nM, 1050 nM and 270 nM.
